This note sets out measurements from paper PMC6603201.

Test in all cases: SPR; CBP-FLAG immobilised by amine coupling on a CM5 chip (300-400 RU, 10 mM sodium acetate pH 4.5); serial dilutions of mouse chemokine flowed in triplicate for 3 min, 10 min dissociation; 25°C; HBS-EP buffer (20 mM HEPES, 150 mM NaCl, 3.4 mM EDTA, 0.005% Polysorbate 20, pH 7.4); Biacore X100; global fit with a 1:1 binding model
Assay [1] addresses PVNZ112.0-CBP (Parapoxvirus of red deer in New Zealand (PVNZ), strain RD86).
Assay [2] addresses PVNZ112.3-CBP (Parapoxvirus of red deer in New Zealand (PVNZ), strain RD86).
Assay [3] concerns the target PVNZ112.6-CBP (Parapoxvirus of red deer in New Zealand (PVNZ), strain RD86).

The Kd is a measure of binding affinity in units of concentration. The low end stands for a tighter complex, the high end for a looser complex. As a reminder, the koff is the rate constant with which the complex falls apart. A lower koff goes with slow dissociation. The term kon denotes a measure of how fast the partners come together. A lower kon goes with slow association. In assay [1], “recombinant mouse CCL21 (from UniProt P84444 24-133) (ligand)” had a Kd of 12.9 nM, a koff of 0.00682 s⁻¹ and a kon of 530000 M⁻¹ s⁻¹. In addition, in assay [2], the Kd stood at 17.9 nM, the koff was determined as 0.00251 s⁻¹ and the on-rate (kon) is 140000 M⁻¹ s⁻¹. In assay [3], this molecule displayed a Kd of 0.52 nM, a koff of 0.0103 s⁻¹ and a kon of 1.95e+07 M⁻¹ s⁻¹.
Consider “recombinant mouse CCL2 (from UniProt P10148 24-148) (ligand)”, for which, in assay [3], the dissociation constant Kd was 0.03 nM, the koff was found to be 0.00037 s⁻¹ and the kon was 1.18e+07 M⁻¹ s⁻¹.

B1: recombinant mouse CXCL1 (ligand)
chain: APIANELRCQCLQTMAGIHLKNIQSLKVLPSGPHCTQTEVIATLKNGREACLDPEAPLVQKIVQKMLKGVPK
As to B1, in assay [2], the Kd came out at 0.66 nM, the koff is 0.00169 s⁻¹ and the kon turned out to be 2.54e+06 M⁻¹ s⁻¹.

B2: recombinant mouse CCL19 (ligand)
chain: GANDAEDCCLSVTQRPIPGNIVKAFRYLLNEDGCRVPAVVFTTLRGYQLCAPPDQPWVDRIIRRLKKSSAKNKGNSTRRSPVS
In assay [2], B2 yielded a Kd of 15.8 nM, a koff of 0.00158 s⁻¹ and a kon of 10000 M⁻¹ s⁻¹. In assay [3], this molecule displayed a Kd of 0.13 nM, a koff of 0.00132 s⁻¹ and a kon of 1e+07 M⁻¹ s⁻¹.

B3: recombinant mouse CXCL2 (ligand)
chain: AVVASELRCQCLKTLPRVDFKNIQSLSVTPPGPHCAQTEVIATLKGGQKVCLDPEAPLVQKIIQKILNKGKAN
Regarding B3, in assay [2], the Kd is 0.48 nM, the koff is 0.00087 s⁻¹ and the kon amounted to 1.79e+06 M⁻¹ s⁻¹.

B4: recombinant mouse CCL22 (ligand)
chain: GPYGANVEDSICCQDYIRHPLPSRLVKEFFWTSKSCRKPGVVLITVKNRDICADPRQVWVKKLLHKLS
In assay [3], B4 came in with a Kd of 0.02 nM, a koff of 0.00047 s⁻¹ and a kon of 2.17e+07 M⁻¹ s⁻¹.

B5: recombinant mouse XCL1 (ligand)
chain: VGTEVLEESSCVNLQTQRLPVQKIKTYIIWEGAMRAVIFVTKRGLKICADPEAKWVKAAIKTVDGRASTRKNMAETVPTGAQRSTSTAITLTG
For the molecule B5, in assay [1], the dissociation constant Kd was 30.8 nM, the koff turned out to be 0.00203 s⁻¹ and the kon was determined as 60000 M⁻¹ s⁻¹.

B6: recombinant mouse CXCL4 (ligand)
chain: VTSAGPEESDGDLSCVCVKTISSGIHLKHITSLEVIKAGRHCAVPQLIATLKNGRKICLDRQAPLYKKVIKKILES
As to B6, the results for the Kd in assay [1], in assay [2] and in assay [3] were 25.9 nM, 0.97 nM and 0.59 nM, respectively. The results for the koff in assay [1], in assay [2] and in assay [3] were 0.0044 s⁻¹, 0.00126 s⁻¹ and 0.011 s⁻¹, respectively. Further, the figures for the kon in assay [1], in assay [2] and in assay [3] were 170000 M⁻¹ s⁻¹, 1.29e+06 M⁻¹ s⁻¹ and 1.85e+07 M⁻¹ s⁻¹, respectively.

B7: recombinant mouse CCL3 (ligand)
chain: APYGADTPTACCFSYSRKIPRQFIVDYFETSSLCSQPGVIFLTKRNRQICADSKETWVQEYITDLELNA
In assay [3], B7 gave a Kd of 2.51 nM, a koff of 0.0358 s⁻¹ and an association rate constant (kon) of 1.42e+07 M⁻¹ s⁻¹.

B8: recombinant mouse CXCL10 (ligand)
chain: IPLARTVRCNCIHIDDGPVRMRAIGKLEIIPASLSCPRVEIIATMKKNDEQRCLNPESKTIKNLMKAFSQKRSKRAP
In assay [1], B8 displayed a Kd of 7.29 nM, a koff of 0.00708 s⁻¹ and a kon of 970000 M⁻¹ s⁻¹. Also, in assay [2], the Kd came to 82.5 nM, the koff came out at 0.0198 s⁻¹ and the kon is 240000 M⁻¹ s⁻¹. In assay [3], the Kd came to 10.4 nM, the off-rate (koff) stood at 0.00146 s⁻¹ and the kon was 140000 M⁻¹ s⁻¹.
